Laboratory results published in US20100291638.

What was measured:
[1] = tested on: T1, DNA polymerase 3173 (uncultured hot spring virus (Octopus Spring)); conditions: reverse transcription, 60 C 20 min, MgCl2 and MnCl2
T1 sequence: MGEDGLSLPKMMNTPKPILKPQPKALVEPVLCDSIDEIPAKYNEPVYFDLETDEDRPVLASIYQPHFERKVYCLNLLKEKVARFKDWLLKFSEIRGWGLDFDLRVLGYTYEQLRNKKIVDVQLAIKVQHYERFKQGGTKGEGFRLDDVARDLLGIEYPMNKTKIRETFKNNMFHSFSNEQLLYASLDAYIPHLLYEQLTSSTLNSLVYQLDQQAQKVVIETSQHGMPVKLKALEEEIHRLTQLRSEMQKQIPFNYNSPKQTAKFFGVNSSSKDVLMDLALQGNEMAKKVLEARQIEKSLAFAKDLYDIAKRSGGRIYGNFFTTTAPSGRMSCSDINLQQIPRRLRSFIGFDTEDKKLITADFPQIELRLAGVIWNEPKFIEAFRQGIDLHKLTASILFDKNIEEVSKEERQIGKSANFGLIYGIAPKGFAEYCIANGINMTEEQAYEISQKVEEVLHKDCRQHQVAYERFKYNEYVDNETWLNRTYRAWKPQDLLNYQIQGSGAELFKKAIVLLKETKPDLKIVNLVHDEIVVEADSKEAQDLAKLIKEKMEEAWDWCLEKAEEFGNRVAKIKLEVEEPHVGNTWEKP

[2] = target: MMLV reverse transcriptase (Moloney murine leukemia virus) (UniProt P03355); conditions: reverse transcription, manufacturer's conditions
[3] = target: Tth DNA polymerase (UniProt P52028); conditions: reverse transcription, manufacturer's conditions
[4] = tested on: T1, DNA polymerase 3173 (uncultured hot spring virus (Octopus Spring)); conditions: Km for primed M13 DNA; 70 C; dNTPs in excess

Sequence of UniProt P52028 (P52028 whole entry): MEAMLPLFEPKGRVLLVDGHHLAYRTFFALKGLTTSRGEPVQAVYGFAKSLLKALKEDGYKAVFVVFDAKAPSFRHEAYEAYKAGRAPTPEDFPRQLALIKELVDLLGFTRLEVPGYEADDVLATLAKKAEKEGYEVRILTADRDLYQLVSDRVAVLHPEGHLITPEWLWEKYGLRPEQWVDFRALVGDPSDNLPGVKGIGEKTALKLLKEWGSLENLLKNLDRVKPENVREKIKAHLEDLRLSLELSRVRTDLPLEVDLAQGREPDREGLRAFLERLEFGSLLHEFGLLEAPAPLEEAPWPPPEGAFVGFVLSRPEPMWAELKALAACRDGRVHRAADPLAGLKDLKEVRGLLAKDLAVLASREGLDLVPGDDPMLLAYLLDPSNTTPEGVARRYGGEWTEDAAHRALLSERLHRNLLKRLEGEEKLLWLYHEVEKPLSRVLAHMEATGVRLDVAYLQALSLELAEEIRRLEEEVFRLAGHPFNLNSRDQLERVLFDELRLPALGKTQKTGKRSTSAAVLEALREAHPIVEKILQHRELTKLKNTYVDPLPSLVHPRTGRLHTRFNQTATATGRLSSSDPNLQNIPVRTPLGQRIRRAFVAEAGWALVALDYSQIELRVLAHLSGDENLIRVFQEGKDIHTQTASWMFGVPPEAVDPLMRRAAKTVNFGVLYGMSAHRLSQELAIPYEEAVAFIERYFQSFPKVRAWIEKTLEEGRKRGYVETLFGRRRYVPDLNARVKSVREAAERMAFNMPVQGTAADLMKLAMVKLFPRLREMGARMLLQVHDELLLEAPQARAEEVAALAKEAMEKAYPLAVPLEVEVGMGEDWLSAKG

| Substance | activity [1] [nmol dTTP] | activity [2] [nmol dTTP] | activity [3] [nmol dTTP] | K half [4] [nM] |
| --- | --- | --- | --- | --- |
| poly rA:oligo dT | 1.04 | 1.11 | 0.802 |  |
| primed single-stranded M13 DNA |  |  |  | 5.3 |
